Assays:
Assay in all cases: FACS on Claudin-expressing cells
[1] = molecular target: T1, wild-type human Claudin 4 protein (human, UniProt O14493 1-209)
T1 construct: Expressed on cells by retrovirus; Wording leaves open whether the entry is the protein or the DNA; also called hCLDN4
T1 sequence: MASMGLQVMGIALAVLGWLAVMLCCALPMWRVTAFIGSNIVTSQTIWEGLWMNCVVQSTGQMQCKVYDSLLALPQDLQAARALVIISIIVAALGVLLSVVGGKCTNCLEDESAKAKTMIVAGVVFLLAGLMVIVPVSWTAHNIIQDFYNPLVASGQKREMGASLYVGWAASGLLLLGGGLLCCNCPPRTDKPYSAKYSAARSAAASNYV
Description: (§1) The cells were washed three times with 0.2% BSA-TBS, and then mixed with 100 μL of a secondary antibody solution (FITC conjugated goat anti-mouse IgG+IgM in 1% BSA-PBS (1:400)), followed by a reaction at 4° C. for 1 hour. The cells were washed with 0.2% BSA-TBS, and FACS analysis (FACS caliber, BD Bioscience) was performed.

[2] = molecular target: T2, wild-type human Claudin 9 protein (human, UniProt O95484 1-217)
T2 construct: Expressed on cells by retrovirus; Wording leaves open whether the entry is the protein or the DNA; also called hCLDN9
T2 sequence: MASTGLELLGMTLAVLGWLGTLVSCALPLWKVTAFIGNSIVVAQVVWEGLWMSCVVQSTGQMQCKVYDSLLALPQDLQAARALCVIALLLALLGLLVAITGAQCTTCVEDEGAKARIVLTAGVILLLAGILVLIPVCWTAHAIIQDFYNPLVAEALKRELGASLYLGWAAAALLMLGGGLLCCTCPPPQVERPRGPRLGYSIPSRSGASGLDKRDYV
Description: as §1

[3] = molecular target: T3, wild-type human Claudin 3 protein (human, UniProt O15551 1-220)
T3 construct: Expressed on cells by retrovirus; Wording leaves open whether the entry is the protein or the DNA; also called hCLDN3
T3 sequence: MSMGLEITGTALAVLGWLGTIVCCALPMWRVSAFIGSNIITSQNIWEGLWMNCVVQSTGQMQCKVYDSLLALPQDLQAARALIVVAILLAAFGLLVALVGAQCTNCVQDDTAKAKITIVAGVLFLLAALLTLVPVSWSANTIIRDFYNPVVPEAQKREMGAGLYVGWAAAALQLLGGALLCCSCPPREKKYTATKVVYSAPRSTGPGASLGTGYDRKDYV
Description: as §1

[4] = molecular target: T4, wild-type human Claudin 1 protein (human, UniProt O95832 1-211)
T4 construct: Expressed on cells by retrovirus; also called hCLDN1
T4 sequence: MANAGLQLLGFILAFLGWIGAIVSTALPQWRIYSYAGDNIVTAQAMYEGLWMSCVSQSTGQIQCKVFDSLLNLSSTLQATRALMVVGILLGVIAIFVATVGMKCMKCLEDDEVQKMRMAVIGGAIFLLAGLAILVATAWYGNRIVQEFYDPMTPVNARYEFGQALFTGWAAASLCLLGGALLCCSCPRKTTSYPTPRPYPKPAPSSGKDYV
Description: as §1

[5] = molecular target: T5, wild-type human Claudin 6 protein (human, UniProt P56747 1-220)
T5 construct: Expressed on cells by retrovirus; Wording leaves open whether the entry is the protein or the DNA; also called hCLDN6
T5 sequence: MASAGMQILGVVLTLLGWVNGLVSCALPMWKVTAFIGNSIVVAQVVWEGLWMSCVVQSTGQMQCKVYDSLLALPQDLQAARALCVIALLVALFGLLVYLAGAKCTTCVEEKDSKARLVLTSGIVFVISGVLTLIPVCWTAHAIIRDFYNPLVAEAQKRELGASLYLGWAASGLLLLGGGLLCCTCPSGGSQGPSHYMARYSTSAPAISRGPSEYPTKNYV
Description: as §1

Measured: binding result

B1: antibody 2B1 (antibody, IgG2a, V domains shown)
VH: QVQLQQPGAELVKPGASVKLSCKASGYTFTTFWIHWVKQRPGRGLEWIGRIAPYSGGTTYNEKFKSKATLTVDRPSTTAYMQLISLTSEDSAVYYCARWDFTYGSNLDYWGQGTTLTVSS
VL: DIVMTQSQKFMSTSVGDRVSIPCKASQNVRTAVAWYQQKPGQSPKALIYLASNRHTGVPDRFTGSGSGTDFTLTISNVQSEDLADYFCLGHWDYPYTFGGGTKLEIKR
notes: also called antibody B
no binding (tested: 10 µg/mL): [1] | [2] | [3] | [4] | [5]

B2: antibody 2B12 (antibody, IgG2a, V domains shown)
VH: QVQLQQSGAELARPGASVKLSCKASGYTFTRFGMSWVKQRTGQGLEWIGEIYPGSGDTYYSENFKGKATLTADKSSGTAYMELRSLTSEDSAVYFCARWGIYYGNPYAMDYWGQGTSVTVSS
VL: DIVMTQAAPSVPVTPGESVSISCRSSKSLLHSNGNTYLYWFLQRPGQSPQLLIYRMSNLASGVPDRFSGSGSGTAFTLRISRVEAEDVGVYYCLQHLEYPFTFGSGTKLEIKR
notes: also called antibody A
no binding (tested: 10 µg/mL): [1] | [2] | [3] | [4] | [5]
